The values that follow come from publication PMC5177656, “Cytosolic Triosephosphate Isomerase from Arabidopsis thaliana Is Reversibly Modified by Glutathione on Cysteines 127 and 218” (Frontiers in Plant Science, 2016).

First the molecules themselves.
B1: cTPI (cytosolic triosephosphate isomerase) (Arabidopsis thaliana) (protein)
chain: MARKFFVGGNWKCNGTAEEVKKIVNTLNEAQVPSQDVVEVVVSPPYVFLPLVKSTLRSDFFVAAQNCWVKKGGAFTGEVSAEMLVNLDIPWVILGHSERRAILNESSEFVGDKVAYALAQGLKVIACVGETLEEREAGSTMDVVAAQTKAIADRVTNWSNVVIAYEPVWAIGTGKVASPAQAQEVHDELRKWLAKNVSADVAATTRIIYGGSVNGGNCKELGGQADVDGFLVGGASLKPEFIDIIKAAEVKKSA
notes: tag removal not mentioned
B2: cTPI (cytosolic triosephosphate isomerase) (Arabidopsis thaliana; C127S) (protein)
chain: B1 chain with C127S
notes: tag removal not mentioned
B3: cTPI (cytosolic triosephosphate isomerase) (Arabidopsis thaliana; C127S/C218S) (protein)
chain: B1 chain with C127S, C218S
notes: tag removal not mentioned
B4: cTPI (cytosolic triosephosphate isomerase) (Arabidopsis thaliana; C218S) (protein)
chain: B1 chain with C218S
notes: tag removal not mentioned

Changes are numbered by the printed parent chain. Numbers in names are those of the source.

Substrate in the data set: O=CC(O)COP(=O)(O)O
Nature of the data set: coupled assay with alpha-glycerophosphate dehydrogenase, NADH consumption. It is filed as biochemical, Arabidopsis thaliana. The following applies: pH 7.8, 30°C, 100 mM Tris-Cl, 5 mM DTT, GAP 0-4 mM (from DL-GAP). An excerpt:
coupled assay with alpha-glycerophosphate dehydrogenase, NADH consumption on cTPI (cytosolic triosephosphate isomerase)
Regarding B1, the Km (commonly the substrate concentration at which the rate is half of its maximum) was determined as 1320 ± 60 µM, the kcat (commonly the maximal rate divided by the concentration of active sites) was found to be 3410 ± 269 s⁻¹ and the kcat/Km (usually the turnover number divided by the Michaelis constant) was determined as 2.58e+06 ± 321000 M⁻¹ s⁻¹.

On to B2, for which the Km is 480 ± 40 µM, the kcat is 70.4 ± 7.4 s⁻¹ and the kcat/Km is 147000 ± 28000 M⁻¹ s⁻¹.

For the protein B3, the Km was found to be 500 ± 60 µM, the kcat amounted to 14.8 ± 0.8 s⁻¹ and the catalytic efficiency (kcat/Km) came to 29600 ± 5200 M⁻¹ s⁻¹.

Regarding B4, the Km came out at 1680 ± 30 µM, the kcat is 2690 ± 73 s⁻¹ and the specificity constant (kcat/Km) is 1.6e+06 ± 72000 M⁻¹ s⁻¹.
